Values of other authors as cited in patent US5770693A, “Calpain-inhibiting peptide analogs of the kininogen heavy chain” (Temple University-Of The Commonwealth System of Higher …, priority 1995, dated 1998).

Target: T1, papain (Carica papaya, UniProt P00784)
T1 sequence (P00784 134-345): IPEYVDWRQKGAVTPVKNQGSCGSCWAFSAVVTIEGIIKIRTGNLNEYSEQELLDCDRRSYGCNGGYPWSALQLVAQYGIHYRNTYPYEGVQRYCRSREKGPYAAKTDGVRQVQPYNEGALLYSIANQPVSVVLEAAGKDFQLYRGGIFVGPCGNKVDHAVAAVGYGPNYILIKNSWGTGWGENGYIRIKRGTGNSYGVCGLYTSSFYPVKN

Gln-Val-Val-Ala-Gly (QVVAG; printed: Gln-Val-Val-Ala-Gly) [pentapeptide contained in kininogen heavy chain domains D2 and D3]
activity in inhibiting papain (in words): weak activity
